Measured values reported in patent publication US8951752B2, “N-demethyase genes and uses thereof” (priority 2011, dated 2015).

Assays:
Assay type in all cases: biochemical, Pseudomonas putida CBB5
[1] = target: T1, cytochrome c reductase (Ccr) (Pseudomonas putida, UniProt H9N291); experiment: NAD(P)H:cytochrome c oxidoreductase activity
T1 construct: 87 μM bovine cytochrome c (type Ill; Sigma), and 1-20 μg CBB5 protein (depending on purity); made in house; host or cells: column fractions of the natural strain Pseudomonas putida CBB5; not recombinant
Method: Enzyme Activity Assays. NADH:cytochrome c oxidoreductase (cytochrome c reductase, Ccr) activity was determined as described by Ueda et al. (1972). A typical 1-mL reaction contained 300 μM NADH, 87 μM bovine cytochrome c (type Ill; Sigma), and 1-20 μg CBB5 protein (depending on purity) in 50 mM KPi buffer. The activity was determined by monitoring the increase in absorbance at 550 nm due to reduction of […] cytochrome c at 30° C. An extinction coefficient of 21,000 M^−1 cm^−1 for reduced minus oxidized cytochrome c was used for quantitating the activity. One unit of activity was defined as one μmol of cytochrome c reduced per minute.

[2] = substrate: Cn1cnc2[nH]c(=O)[nH]c(=O)c21; experiment: Methylxanthine N-demethylase activity assay with purified Ndm plus partially purified Ccr; settings: other: saturating Ccr, 50 μM Fe2+, 30° C., 50 mM KPi pH 7.5
Method: (§1) Methylxanthine N-demethylase activity assay contained, in 1-mL total volume, 0.5 mM methylxanthine, 1 mM NADH, 50 μM Fe(NH4)2(SO4)2, and an appropriate amount of Ndm (0.08-7.5 mg protein, depending on purity of the protein) in 50 mM KPi buffer. Approximately 4 U of partially purified Ccr was added to reaction mixture when assaying Ndm in Phenyl Sepharose and Q Sepharose eluant-fractions (Ccr was not added to the enzyme reaction mixture when assaying Ndm activity in DEAE Sepharose eluant-fractions because Ccr co-eluted with Ndm). The reaction mixture was incubated at 30° C. with 300 rpm shaking on an incubating microplate shaker (VWR). Periodically, a small aliquot was sampled from the reaction mixture and mixed with equal volume of acetonitrile for quantifying concentrations of methylxanthines and N-demethylated products by HPLC. One unit of N-demethylase activity was defined as the consumption of one μmole methylxanthine per minute. When Ndm was coupled with the reductase and ferredoxin components of naphthalene dioxygenase of Pseudomonas sp. strain 9816 (Haigler & Gibson, 1990a; Haigler & Gibson, 1990b), 30 and 100 μg of the respective proteins were used. Spinach ferredoxin reductase and ferredoxin were also substituted for Ccr as described by Subramanian et al. (1979).
(§2) Determination of Kinetic Parameters. Apparent kinetic parameters of Ndm were determined by measuring the initial rate of disappearance (vo) of paraxanthine or 7-methylxanthine in 50 mM KPi buffer (pH 7.5) at 30° C. The paraxanthine and 7-methylxanthine concentrations ([S]) used in these experiments were from 20 to 500 μM. Substrates were incubated with Ndm and Ccr under standard conditions for 15 minutes. At 1, 5, 10, and 15 minutes, samples were removed from the reaction mixtures to quantitate substrate concentrations by HPLC. Plots of substrate concentrations against time were used to determine the initial rates of disappearance of substrates which were linear over 15 minutes. The apparent kinetic parameters were determined from Michaelis-Menten plots of Vo against [S] fitted with the equation
(§3) Determination of Oxygen Requirement. Oxygen consumption by Ndm during N-demethylation of paraxanthine was determined in a closed reaction vessel equipped with a Clarke-type oxygen electrode (Digitial Modell 0, Rank Brothers Ltd., Cambridge, England). […] After 13 minutes, a 100-μL aliquot was withdrawn from the reaction, immediately mixed with equal volume of acetonitrile to stop the enzyme reaction, and analyzed for N-demethylation product by HPLC. Background oxygen consumption, possibly due to NADH oxidase enzyme activity in the partially purified Ccr, was quantitated in control reactions containing all reaction components except paraxanthine. […]

[3] = substrate: Cn1c(=O)[nH]c2ncn(C)c2c1=O; experiment: as above; settings: other: saturating Ccr, 50 μM Fe2+, 30° C., 50 mM KPi pH 7.5
Method: as §1, §2, §3

[4] = substrate: Cn1c(=O)c2c(ncn2C)n(C)c1=O; experiment: Methylxanthine N-demethylase assay and kinetics, NdmA-His6 with His6-NdmD; settings: other: NdmA-His6, 30° C., pH 7.5, ∞ where no activity
Method: (§4) Methylxanthine N-demethylase activity assay contained, in 1-ml total volume, 0.5 mM methylxanthine, 1 mM NADH, 50 μM Fe(NH4)2(SO4)2, and an appropriate amount of NdmA-His6 or NdmB-His6 (7.4 μg-2.5 mg protein depending on substrate specificity) in 50 mM KPi buffer (pH 7.5). Approximately 4 U of partially purified reductase, prepared as described previously (Summers et al., 2011) or 59 U of purified His6-NdmD was added to reaction mixture. Catalase from bovine liver (4,000 U) was also added to reactions containing His6-NdmD. The reaction mixture was incubated at 30° C. with 300 rpm shaking on an incubating microplate shaker (VWR, Radnor, Pa.). Periodically, a small aliquot was sampled from the reaction mixture and mixed with equal volume of acetonitrile for quantifying concentrations of methylxanthines and N-demethylated products by HPLC. One unit of N-demethylase activity was defined as the consumption of one […] methylxanthine per minute.
(§5) Apparent kinetic parameters of NdmA-His6 and NdmB-His6 were determined by measuring the initial rate of disappearance (vo) of methylxanthines in 50 mM KPi buffer (pH 7.5) at 30° C. The initial substrate concentrations (ESI) used in these experiments were from 25 to 500 μM. Substrates were incubated with His6-NdmD plus either NdmA-His6 or NdmB-His6 under standard conditions for 15 minutes. At 1, 5, 10, and 15 minutes, samples were removed from the reaction mixtures to quantitate substrate concentrations by HPLC. Plots of substrate concentrations against time were used to determine the initial rates of disappearance of substrates which were linear over 15 minutes. The apparent kinetic parameters were determined from Michaelis-Menten plots of vo against [S] fitted with the equation

[5] = substrate: Cn1c(=O)c2[nH]cnc2n(C)c1=O; experiment: as above; settings: other: NdmA-His6, 30° C., pH 7.5, ∞ where no activity
Method: as §4, §5

[6] = substrate: Cn1c(=O)[nH]c2nc[nH]c2c1=O; experiment: as above; settings: other: NdmA-His6, 30° C., pH 7.5, ∞ where no activity
Method: as §4, §5

[7] = substrate: Cn1c(=O)[nH]c2ncn(C)c2c1=O; experiment: as above; settings: other: NdmA-His6, 30° C., pH 7.5, ∞ where no activity
Method: as §4, §5

[8] = substrate: Cn1c(=O)c2c(ncn2C)n(C)c1=O; experiment: Methylxanthine N-demethylase assay and kinetics, NdmB-His6 with His6-NdmD; settings: other: NdmB-His6, 30° C., pH 7.5, ∞ where no activity
Method: as §4, §5

[9] = substrate: Cn1c(=O)c2[nH]cnc2n(C)c1=O; experiment: as above; settings: other: NdmB-His6, 30° C., pH 7.5, ∞ where no activity
Method: as §4, §5

[10] = substrate: Cn1cnc2c1c(=O)[nH]c(=O)n2C; experiment: as above; settings: other: NdmB-His6, 30° C., pH 7.5, ∞ where no activity
Method: as §4, §5

[11] = substrate: Cn1c(=O)[nH]c(=O)c2[nH]cnc21; experiment: as above; settings: other: NdmB-His6, 30° C., pH 7.5, ∞ where no activity
Method: as §4, §5

T1 sequence (H9N291 whole entry): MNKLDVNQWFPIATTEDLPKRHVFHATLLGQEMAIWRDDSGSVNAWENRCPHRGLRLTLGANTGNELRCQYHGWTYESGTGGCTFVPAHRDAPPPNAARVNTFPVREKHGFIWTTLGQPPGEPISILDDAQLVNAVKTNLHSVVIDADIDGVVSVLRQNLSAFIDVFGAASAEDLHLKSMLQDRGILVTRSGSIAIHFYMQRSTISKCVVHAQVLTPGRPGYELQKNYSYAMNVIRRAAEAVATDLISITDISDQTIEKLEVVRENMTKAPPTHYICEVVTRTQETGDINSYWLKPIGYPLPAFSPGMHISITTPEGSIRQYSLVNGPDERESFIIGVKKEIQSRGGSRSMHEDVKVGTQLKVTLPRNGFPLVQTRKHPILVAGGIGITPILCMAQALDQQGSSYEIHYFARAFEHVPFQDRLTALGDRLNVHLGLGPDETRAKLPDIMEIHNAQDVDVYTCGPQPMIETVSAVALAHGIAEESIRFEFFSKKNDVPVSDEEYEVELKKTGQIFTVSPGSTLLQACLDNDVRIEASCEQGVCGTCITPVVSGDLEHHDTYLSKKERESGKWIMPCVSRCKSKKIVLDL

**Q.** For `NC(=O)C1=CN([C@@H]2O[C@H](COP(=O)(O)OP(=O)(O)OC[C@H]3O[C@@H](n4cnc5c(N)ncnc54)[C@H](OP(=O)(O)O)[C@@H]3O)[C@@H](O)[C@H]2O)C=CC1` [NADPH], which “Ccr activity relative to that with NADH” value [1] is on record?
**A.** 22%

B1: N-demethylase (Ndm: NdmA and NdmB subunits) (Pseudomonas putida) (protein)
chain 1: MEQAIINDEREYLRHFWHPVCTVTELEKAHPSSLGPLAVKLLNEQLVVAKLGDEYVAMRDRCAHRSAKLSLGTVSGNRLQCPYHGWQYDTHGACQLVPACPNSPIPNKAKVDRFDCEERYGLIWIRLDSSFDCTEIPYFSAANDPRLRIVIQEPYWWDATAERRWENFTDFSHFAFIHPGTLFDPNNAEPPIVPMDRFNGQFRFVYDTPEDMAVPNQAPIGSFSYTCSMPFAINLEVSKYSSSSLHVLFNVSCPVDSHTTKNFLIFAREQSDDSDYLHIAFNDLVFAEDKPVIESQWPKDAPADEVSVVADKVSIQYRKWLRELKEAHKEGSQAFRSALLDPVIESDRSYI
chain 2: MKEQLKPLLEDKTYLRHFWHPVCTLNEFERANASGHGPMGVTLLGEKLVLARLNSKIIAAADRCAHRSAQLSIGRVCSNAGKDYLECPYHGWRYDEAGACQLIPACPDKSISPRAKISSFDCEVKYDIVWVRLDNSFDCTQIPYLSDFDNPDMQVIVADSYIWETVAERRWENFTDFSHFAFVHPGTLYDPFFASHPTVYVNRVDGELQFKLAPPREMKGIPPEAPMGDFTYRCTMPYSVNLEIKLWKDDSRFVLWTTASPVDNKSCRNFMIIVREKDNQPDHMHLAFQKRVLDEDQPVIESQWPLEIQTSEVSVATDKISVQFRKWHKELSLSAVEGREAFRDSVLTNVIEEEQ
notes: lane 3, natural Ndm purified from P. putida CBB5; made in house; host or cells: purified from the natural strain Pseudomonas putida CBB5 (DEAE, Phenyl and Q Sepharose); not recombinant
**Q.** Which Km [2] does the source give for B1 here?
**A.** 63.8 ± 7.5 µM

**Q.** And the kcat [2]?
**A.** 1.58 ± 0.05 s⁻¹

**Q.** What about the Km [3] of the same molecule?
**A.** 50.4 ± 6.8 µM

**Q.** What about the kcat [3] of the same molecule?
**A.** 0.27 ± 0.01 s⁻¹

B2: NdmA-His6 (Pseudomonas putida) (protein)
chain: MEQAIINDEREYLRHFWHPVCTVTELEKAHPSSLGPLAVKLLNEQLVVAKLGDEYVAMRDRCAHRSAKLSLGTVSGNRLQCPYHGWQYDTHGACQLVPACPNSPIPNKAKVDRFDCEERYGLIWIRLDSSFDCTEIPYFSAANDPRLRIVIQEPYWWDATAERRWENFTDFSHFAFIHPGTLFDPNNAEPPIVPMDRFNGQFRFVYDTPEDMAVPNQAPIGSFSYTCSMPFAINLEVSKYSSSSLHVLFNVSCPVDSHTTKNFLIFAREQSDDSDYLHIAFNDLVFAEDKPVIESQWPKDAPADEVSVVADKVSIQYRKWLRELKEAHKEGSQAFRSALLDPVIESDRSYI
notes: made in house; host or cells: E. coli BL21(DE3)
**Q.** How did the Km [4] turn out when B2 was run?
**A.** 37.6 µM

**Q.** What about the kcat [4] of the same molecule?
**A.** 3.21 s⁻¹

**Q.** And the kcat/Km [4]?
**A.** 85000 M⁻¹ s⁻¹

**Q.** What about the Km [5] of the same molecule?
**A.** 9.1 µM

**Q.** And the kcat [5]?
**A.** 1.38 s⁻¹

**Q.** What about the kcat/Km [5] of the same molecule?
**A.** 152000 M⁻¹ s⁻¹

**Q.** What about the Km [6] of the same molecule?
**A.** 266.6 µM

**Q.** And the kcat [6]?
**A.** 0.26 s⁻¹

**Q.** And the kcat/Km [6]?
**A.** 1000 M⁻¹ s⁻¹

**Q.** What about the Km [7] of the same molecule?
**A.** 52.9 µM

**Q.** What about the kcat [7] of the same molecule?
**A.** 2.21 s⁻¹

**Q.** And the kcat/Km [7]?
**A.** 41700 M⁻¹ s⁻¹

B3: NdmB-His6 (Pseudomonas putida) (protein)
chain: MKEQLKPLLEDKTYLRHFWHPVCTLNEFERANASGHGPMGVTLLGEKLVLARLNSKIIAAADRCAHRSAQLSIGRVCSNAGKDYLECPYHGWRYDEAGACQLIPACPDKSISPRAKISSFDCEVKYDIVWVRLDNSFDCTQIPYLSDFDNPDMQVIVADSYIWETVAERRWENFTDFSHFAFVHPGTLYDPFFASHPTVYVNRVDGELQFKLAPPREMKGIPPEAPMGDFTYRCTMPYSVNLEIKLWKDDSRFVLWTTASPVDNKSCRNFMIIVREKDNQPDHMHLAFQKRVLDEDQPVIESQWPLEIQTSEVSVATDKISVQFRKWHKELSLSAVEGREAFRDSVLTNVIEEEQ
notes: as for B2
**Q.** Which results are given for B3?
**A.** Km [8]: 41.7 µM; kcat [8]: 0.00383 s⁻¹; kcat/Km [8]: 100 M⁻¹ s⁻¹; Km [9]: 169.0 µM; Km [10]: 25.3 ± 5.1 µM; kcat [10]: 0.772 ± 0.0317 s⁻¹; kcat/Km [10]: 30000 M⁻¹ s⁻¹; Km [11]: 22.4 ± 5.2 µM; kcat [11]: 0.528 ± 0.025 s⁻¹; kcat/Km [11]: 23300 M⁻¹ s⁻¹
